From patent US20210292396A1
Substitutions are numbered along the chain they refer to.

Experiments:
Assay in all cases: cell-based or functional assay
[1] = target: HIV Env of isolate 231965.c01 (HIV)
[2] = target: HIV Env of isolate A07412M1.vrc12 (HIV)
[3] = target: Env of HIV isolate 3365.v2.c20 (clade A) (HIV)
[4] = target: HIV Env of isolate 191821.E6.1 (HIV)
[5] = target: Env of HIV isolate BJOX009000.02.4 (clade AE) (HIV)
[6] = target: Env of HIV isolate 928-28 (clade AG) (HIV)
[7] = target: HIV Env of isolate ZM215.8 (HIV)
[8] = target: HIV Env of isolate UG021.16 (HIV)
[9] = target: Env of HIV isolate YU2.DG (clade B) (HIV)
[10] = target: Env of HIV isolate 3468.v1.c12 (clade AD) (HIV)
[11] = target: Env of HIV isolate DJ263.8 (clade AG) (HIV)
[12] = target: HIV Env of isolate 3326.v4.c3 (HIV)
[13] = target: Env of HIV isolate 6101.10 (clade B) (HIV)
[14] = target: Env of HIV isolate 242-14 (clade AG) (HIV)
[15] = target: Env of HIV isolate C4118.09 (clade AE) (HIV)
[16] = target: Env of HIV isolate DU422.01 (clade C) (HIV)
[17] = target: Env of HIV isolate 3337.v2.c6 (clade CD) (HIV)
[18] = target: Env of HIV isolate SF162.LS (clade B) (HIV)
[19] = target: Env of HIV isolate 6644.v2.c33 (clade C) (HIV)
[20] = target: HIV Env of isolate ZM233.6 (HIV)
[21] = target: Env of HIV isolate 3589.v1.c4 (clade AC) (HIV)
[22] = target: Env of HIV isolate 426c (clade C) (HIV)
[23] = target: Env of HIV isolate JRFL.JB (clade B) (HIV)
[24] = target: Env of HIV isolate Q168.a2 (clade AD) (HIV)
[25] = target: HIV Env of isolate X1254.c3 (HIV)
[26] = target: Env of HIV isolate CNE58 (clade C in Table 7) (HIV)
[27] = target: HIV Env of isolate ZM249.1 (HIV)
[28] = target: HIV Env of isolate ZM106.9 (HIV)
[29] = target: Env of HIV isolate CNE10 (clade B) (HIV)
[30] = target: Env of HIV isolate CNE15 (clade BC) (HIV)
[31] = target: HIV Env of isolate 6471.v1.c16 (HIV)
[32] = target: Env of HIV isolate Q259.17 (clade A) (HIV)
[33] = target: HIV Env of isolate TZBD.02 (HIV)
[34] = target: Env of HIV isolate ADA.DG (clade B) (HIV)
[35] = target: HIV Env of isolate CAP256.206.C9 (HIV)
[36] = target: Env of HIV isolate TRJO.58 (clade B) (HIV)
[37] = target: Env of HIV isolate 26191-2.48 (clade C) (HIV)
[38] = target: HIV Env of isolate 6785.v5.c14 (HIV)
[39] = target: Env of HIV isolate 00836-2.5 (clade C) (HIV)
[40] = target: Env of HIV isolate CNE14 (clade B) (HIV)
[41] = target: Env of HIV isolate 0077.v1.c16 (clade C) (HIV)
[42] = target: HIV Env of isolate X2088.c9 (HIV)
[43] = target: HIV Env of isolate 6322.v4.c1 (HIV)
[44] = target: Env of HIV isolate Q769.h5 (clade A) (HIV)
[45] = target: Env of HIV isolate 263-8 (clade AG) (HIV)
[46] = target: Env of HIV isolate KNH1209.18 (clade A) (HIV)
[47] = target: Env of HIV isolate M02138 (clade AE) (HIV)
[48] = target: HIV Env of isolate CH117.4 (HIV)
[49] = target: Envelope protein of SIVmac251.30.SG3 (clade NA)
[50] = target: Env of HIV isolate Q23.17 (clade A) (HIV)

B1: ePGT121.15.H2.L1 (antibody, V domains shown)
VH: QMQLQESGPGLVKPGETLSLTCSVSGASISSSYWSWLRETPGKGLEWIGYTHHSGDTNYAPSLKSRVHLGLHPSKNQVSLSLTSVTAADTAVYYCARTLHGRRIYGVVAFNEWFTYFYWEVWGKGTQVTVSS
VL: SDISVAPGETVRISCGGESIGSRAVQWYQHRAGQAPKLIIYNNQDRPPGIPERFSGSPDIDFGTTATLTITNVEAGDEATYYCHIWDSRRPTNWVFGGGTTLTVL
Binder B1 has a neutralization (Table 6 value) [1] of 0.285 and a neutralization (Table 6 value) [2] of 0.000944.

B2: ePGT121.18.17 (ePGT121.18.H17 VH and ePGT121.17.L1 VL) (antibody, V domains shown)
VH: B1 VH with H68T, L69I, H72D, W113Y, F114Y, E120P, V121T
VL: B1 VL with S14T, A32P, K37R, T71S, V95E, F96L, G98P
In the case of B2, the IC50, pseudovirus neutralization [3] is reported as 0.007 mg/L, the IC80, pseudovirus neutralization [4] is reported as 0.727 mg/L and the IC50, pseudovirus neutralization [5] is reported as 0.156 mg/L. For the same binder, the IC50, pseudovirus neutralization [6] was 0.462 mg/L, the IC80, pseudovirus neutralization [7] was 0.048 mg/L and the IC80, pseudovirus neutralization [8] was 0.078 mg/L. The IC50, pseudovirus neutralization [9] was 0.011 mg/L, the IC50, pseudovirus neutralization [10] was 0.004 mg/L and the IC50, pseudovirus neutralization [11] was 0.014 mg/L. For the same binder, the IC80, pseudovirus neutralization [12] was 32 mg/L, the IC50, pseudovirus neutralization [13] was 0.004 mg/L and the IC50, pseudovirus neutralization [14] was > 50 mg/L. For the same binder, the IC50, pseudovirus neutralization [15] was > 50 mg/L, the IC50, pseudovirus neutralization [16] was 0.013 mg/L and the IC50, pseudovirus neutralization [17] was 0.363 mg/L. The IC50, pseudovirus neutralization [18] was 0.003 mg/L, the IC50, pseudovirus neutralization [19] was 0.005 mg/L and the IC80, pseudovirus neutralization [20] was 0.065 mg/L. The IC50, pseudovirus neutralization [21] was 2.73 mg/L, the IC50, pseudovirus neutralization [22] was 0.26 mg/L and the IC50, pseudovirus neutralization [23] was 0.011 mg/L. For the same binder, the IC50, pseudovirus neutralization [24] was 1.52 mg/L, the IC80, pseudovirus neutralization [25] was 0.015 mg/L and the IC50, pseudovirus neutralization [26] was 0.053 mg/L. It also gave an IC80, pseudovirus neutralization [27] of 4.25 mg/L, an IC80, pseudovirus neutralization [28] of 0.008 mg/L and an IC50, pseudovirus neutralization [29] of 0.004 mg/L. The IC50, pseudovirus neutralization [30] was 14 mg/L, the IC80, pseudovirus neutralization [31] was 10 mg/L and the IC50, pseudovirus neutralization [32] was > 50 mg/L. The IC80, pseudovirus neutralization [33] was 0.013 mg/L, the IC50, pseudovirus neutralization [34] was 0.005 mg/L and the IC80, pseudovirus neutralization [35] was 0.009 mg/L. For the same binder, the IC50, pseudovirus neutralization [36] was 0.023 mg/L, the IC80, pseudovirus neutralization [1] was > 50 mg/L and the IC50, pseudovirus neutralization [37] was 0.011 mg/L. For the same binder, the IC80, pseudovirus neutralization [38] was 0.015 mg/L, the IC50, pseudovirus neutralization [39] was 48.9 mg/L and the IC50, pseudovirus neutralization [40] was 0.003 mg/L. For the same binder, the IC50, pseudovirus neutralization [41] was > 50 mg/L, the IC80, pseudovirus neutralization [42] was 0.017 mg/L and the IC80, pseudovirus neutralization [43] was > 50 mg/L. For the same binder, the IC50, pseudovirus neutralization [44] was > 50 mg/L, the IC80, pseudovirus neutralization [2] was 0.011 mg/L and the IC50, pseudovirus neutralization [45] was 0.02 mg/L. The IC50, pseudovirus neutralization [46] was 0.003 mg/L, the IC50, pseudovirus neutralization [47] was > 50 mg/L and the IC80, pseudovirus neutralization [48] was > 50 mg/L. The IC50, pseudovirus neutralization [49] was > 50 mg/L and the IC50, pseudovirus neutralization [50] was 0.006 mg/L.
